Measurements from the supplement of paper PMC12042874.
± gives the uncertainty stated by the source.

assay: amyloid nucleation score (Sup35N fusion, yeast selection) (log enrichment); library NNK1; higher = more nucleation; inactive = no reads after selection
How it was run: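 On medium lacking adenine and uracil, psi-negative yeast expressing peptides of 20 random codons fused to Sup35N were grown 7 days at 30°C after a 24-hour induction with 100 μM copper sulfate. Illumina sequencing of input and output plasmid inserts gave the reads, and sequences under 100 input reads were excluded. The nucleation score is the DiMSum log enrichment of output over input reads, centred on the mode score of non-aggregating sequences.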

In order of rising amyloid nucleation score:
1. QVKDIGLPMHHACF  -1.36 ± 1.1
2. PVTSTIHRHPFFHVTTGDRM  -1.32 ± 0.94
3. QLRHLHSNVLLRDIWLGFKF  -1.01 ± 1.7
4. PNMARHPFYEDMCFTVDVTN  -1 ± 0.44
5. QYCIHNNFEYDGL  -0.98 ± 0.47
6. QGIYTD  -0.921 ± 0.78
7. PLLERHVAGLCGFFF  -0.908 ± 1.2
8. RDVAMESRVSGYVGVCGSYR  -0.71 ± 1.2
9. REWIYLVVETPCYFVDDVMD  -0.71 ± 0.52
10. QFGWFWFLNYALQDFDN  -0.696 ± 0.75
11. QSTLGGSKHAWLIENGGFGF  -0.685 ± 1.1
12. QRPLCENRLDYKLGYSTMTF  -0.646 ± 1.6
13. PKARYRFSWLTRYNLNNRRE  -0.608 ± 0.52
14. PVGWGNTACSLRCTGHVSYV  -0.604 ± 1.7
15. QFKRKIICQDKSVAFKCNYR  -0.493 ± 0.22
16. RASFIELVTEKRHPSHTPGK  -0.473 ± 0.39
17. RFCLAVGLRMGYFLGCSDFR  -0.45 ± 1.4
18. QSLDE  -0.44 ± 0.28
19. QSMSCRAFVVTSRLVHWGTQ  -0.438 ± 0.6
20. PLCSNRIERMLLSVGCGRRR  -0.416 ± 0.44
21. RARCAVGS  -0.396 ± 1.5
22. QYCKFPNIRRLRINK  -0.393 ± 0.36
23. RDSLSSVSA  -0.382 ± 0.62
24. QFEDLHQLYSMCALPDSTKH  -0.366 ± 0.93
25. RCDLARVLLMGRWLGPNAVW  -0.359 ± 0.67
26. PLKHVRQDWCTKLICNSGNY  -0.357 ± 0.43
27. QFDCPEHKRIHYRGPHPKRK  -0.356 ± 0.33
28. PVLLRSIIF  -0.346 ± 0.36
29. RCRAVELLEVRRLQMRSGHH  -0.295 ± 0.34
30. QVHIERDVERPYMFLGTAWG  -0.285 ± 0.34
31. QYYFLLYAKSDLSKWEHHQD  -0.282 ± 0.97
32. PVCWSHFYFRVDVFYEWGRV  -0.274 ± 0.39
33. PVVDKLSDVHVM  -0.262 ± 0.31
34. QFSHCWMSRRSGVNSAGRSG  -0.238 ± 0.39
35. PMNYGSSNA  -0.224 ± 1.7
36. RCLEGLSIMLNDFLPPCGP  -0.224 ± 0.71
37. RCMSDFRPVWVYVS  -0.222 ± 0.86
38. PLSRVLGYVFIISRRTNRIL  -0.206 ± 0.28
39. PSQRNKIPGMLSLYY  -0.193 ± 0.57
40. PKNKAAVKNSMALPIARQ  -0.192 ± 0.73
41. RALSH  -0.158 ± 0.74
42. QVFATRDAQRYLLMHRIDHN  -0.153 ± 1.7
43. RFWSAL  -0.148 ± 0.92
44. QKKSLVRGKGES  -0.145 ± 0.48
45. PKATRIALPFFLGLCFSMCL  -0.143 ± 0.38
46. RDYSFGGLMPGCDGEHIVS  -0.138 ± 0.4
47. PLTGAGFTIEML  -0.132 ± 0.36
48. RFNTEKRLALNNNMPLRWFS  -0.125 ± 1.7
49. QDVKSMCQPFMILMVVSGGL  -0.101 ± 0.65
50. RDSRDLMCFVRLPLDRISK  -0.101 ± 0.39
51. QDIQSISWHAFVVESFKSEK  -0.094 ± 0.32
52. RCFECEGALV  -0.08 ± 1.1
53. QSSSYERLKQTGKLSFYIDF  -0.069 ± 0.61
54. PWYVIKV  -0.055 ± 0.31
55. QWCSRRDMCFRSSVILCLWR  -0.035 ± 0.75
56. PMSLPTYLRIPRFVLLAWAE  -0.034 ± 0.39
57. QMGELSSYRLFGIRTFRF  -0.02 ± 0.81
58. PVKVWARTVQSVAWLFSCG  -0.016 ± 1.4
59. RFWSIDRCAWSLMGGILRYG  -0.01 ± 0.43
60. QFVHGRNETIRSFNCPGLAE  -0.007 ± 1.2
61. PVLWT  -0.002 ± 0.53
62. QFSHNRIMLDQTWKNVVKGL  -0.001 ± 0.37
63. QNDTYLI  0.022 ± 1.1
64. QYWVCNKPTLVDYRDTCDRT  0.023 ± 0.89
65. PSYIHMVSGRFSFSSPRGQK  0.029 ± 0.49
66. QRMLHAYLCVNWAELTHIRV  0.034 ± 0.6
67. RDKMDDWFQRHMESGTRTRE  0.053 ± 0.23
68. RFLPVLVSIINKRQGGYDF  0.064 ± 0.46
69. QYIVW  0.142 ± 0.32
70. QAKPIIGRRTPLNDFNSPLY  0.15 ± 0.37
71. RCDYVEWIWYPCYRRNGVCR  0.171 ± 0.39
72. PKGIGGGCARTYRHRVRGSR  0.184 ± 0.64
73. QNLVLVKPEVFGTSRLLCGH  0.184 ± 0.53
74. PSILTVCLRV  0.188 ± 0.41
75. QGHCGTYHSGGSVNRLPHGV  0.209 ± 0.39
76. PTWSWWGSWHLGSMPGDNRR  0.237 ± 0.78
77. QWGTREYGIFLDIFVHVTVN  0.237 ± 0.56
78. RAVLSTSELGLPTV  0.27 ± 0.89
79. PMICFGWALIRYVTFQDLPV  0.276 ± 0.45
80. PTVYSDYTCSTFMWISD  0.299 ± 0.6
81. QNPWNGILLAKNWRDKMLRN  0.3 ± 0.52
82. PWYTSLEIKRSEETCKAMPF  0.302 ± 0.41
83. RCKLLIIVIRKDTCLKYCGH  0.308 ± 0.32
84. QRVSIRFSVPRGL  0.312 ± 0.31
85. PTEKYAESLMERTYFRAEMK  0.315 ± 0.34
86. PRSANCMCDYDRTAM  0.316 ± 0.34
87. PSALGMVNGYIRVIYKRR  0.359 ± 0.53
88. QSGPSAVY  0.362 ± 0.64
89. REPVCICLIAAYGRAKPPTG  0.382 ± 0.84
90. PIKAPLGASCGFAVRVTRTM  0.391 ± 0.46
91. QMRAFSDLFLLSDY  0.406 ± 0.46
92. PLFLYRFCKMVPVCILRIGW  0.415 ± 0.3
93. QTEQMFGRVDIVYLPAIWSS  0.447 ± 0.45
94. QIINKFTSDIVLTD  0.456 ± 0.38
95. PNYDVMSLYRTNYGNYSHSV  0.471 ± 0.38
96. QDFVMSYLCRLKGWLDKRYR  0.472 ± 0.25
97. PRMFIWMCDRDDVSMYQEFL  0.48 ± 0.55
98. QASSGIDVNHFYAVNLTSML  0.487 ± 0.97
99. RCPYSYHGYSVNNWGSAWT  0.487 ± 0.54
100. PSLLWAFTLS  0.5 ± 0.42
101. QSVHDTHSCHGSH  0.5 ± 0.63
102. PRYRASVYYKDTRVLLLF  0.512 ± 0.36
103. PVRQLERSNRLLKQGRRPLG  0.512 ± 0.49
104. PQQEGISLSDALPLPEEGRV  0.535 ± 0.4
105. QGGRVDGSPPTVYA  0.555 ± 0.46
106. RCCALTYPLFKHLG  0.573 ± 0.43
107. QGLADNKSSFKGV  0.591 ± 1
108. QAVRIVGERLAFFGN  0.607 ± 0.65
109. QKLVDLTIRWGYRPLGRCWW  0.622 ± 0.97
110. QLTPTLCDRSRCCPGGLFVY  0.631 ± 0.58
111. QASIYCIIRE  0.68 ± 0.43
112. PVVPCYPRLKVCTGRRTAGA  0.684 ± 0.55
113. RAGCPDVGRRLSCSRSVLPR  0.789 ± 0.27
114. PSTVCMFPRWLAVVRLVLQT  0.79 ± 0.35
115. PLAVVVYDNHRRMGHHVRHG  0.807 ± 0.63
116. PYFLNCRPLRA  0.815 ± 0.52
117. QKAAVEQGLSRFGEGVTP  0.886 ± 0.66
118. RFQVPLCIPLINC  0.886 ± 0.74
119. QTTFGLMIFT  0.89 ± 0.93
120. QVTVRM  0.987 ± 0.24
121. QVALYKVVVYKTWDVGFPSC  0.988 ± 0.9
122. QRLGQGIGGEWPTKL  0.995 ± 0.67
123. QCLRWDPGI  1 ± 0.51
124. PRCFYLMSGEMISTYECKRT  1.05 ± 0.39
125. QWAFYVNYLTSRDYFNIFTR  1.05 ± 0.16
126. RCFMFSTGEALTNEDRSLRR  1.12 ± 0.6
127. PNLMLAFVL  1.14 ± 0.41
128. QYNSGLDRMA  1.14 ± 0.62
129. RFEIIYGWSTYVLDAGVSFQ  1.21 ± 0.13
130. PLAPMFRLWENSVRYIAKLW  1.22 ± 0.64
131. RAKTWDGRGAKQP  1.22 ± 0.64
132. QDRENLNCIHY  1.24 ± 0.31
133. RFFMTHSYELYLEFRGAARR  1.28 ± 0.42
134. QAFFVFC  1.3 ± 0.36
135. RAKICFVRQGRGFIMHRLLA  1.39 ± 0.23
136. PRRSY  1.41 ± 0.84
137. PYHIKLLQR  1.44 ± 0.18
138. QKLLTSMSVITW  1.81 ± 0.65
139. RAAYACWHFTLYNFSLIVTT  1.83 ± 0.57
140. PWASNIAFLNFPTCTDCDG  2.09 ± 0.28
141. QFILRDNVVRRMKFRGVPNF  2.22 ± 0.55
142. QLKCPKNDHVIVWDFCINQL  2.28 ± 0.32
143. QVIEKFVAGCEGQKR  2.31 ± 0.14
144. RDSITITVNCT  2.44 ± 0.078
145. RFMYAISSVTRYPMWPGMMQ  2.45 ± 0.18
146. RDVDRGMHQMAPSTGVRLVL  2.81 ± 0.14
147. QTRVCTNDKSSFTLQTGRW  3.26 ± 0.14
148. RCSFFSYCVNDAS  3.55 ± 0.12
149. PRTLPVLFNLSLKGSSHTYF  4.52 ± 0.064
150. RCTLISRHDWGYANWMRLLL  4.81 ± 0.077
151. RCMLGLLNFIESIHGGR  4.89 ± 0.095
152. PMVIKVLVGCRGYSDLNLYW  4.9 ± 0.079
153. QLSFYSFCPMATYRSSNSDL  5.92 ± 0.053
154. QCAWCTRSVNNMYQTLEYHI  6.151 ± 0.049
155. PMNNIVFYGGYLISAFRVRL  6.46 ± 0.089
156. PSVTVYIYNLSSIFYGIRDL  6.71 ± 0.075

In the case of PNRSLCTVNMCIYVETGFMV, the amyloid nucleation score is reported as “inactive”.
In the case of PPTGTLSRHVRSSVQGMGVA, the amyloid nucleation score is reported as “inactive”.
For PWLKVQFVKREVTIDFRVRV, the amyloid nucleation score was “inactive”.
In the case of PYFVIKSRWGQNRS, the amyloid nucleation score is reported as “inactive”.
For PYYHHVGVGYAFYVICVRAF, the amyloid nucleation score was “inactive”.
For QDAIMFGSDPLFYILLGLWG, the amyloid nucleation score was “inactive”.
For QFYVSVFEIYSLLTRKCACR, the amyloid nucleation score was “inactive”.
With QGSVSRCISEALTVRCYRTG the amyloid nucleation score was “inactive”.
For QIIWVIRFLLVCVFTLSKLV, the amyloid nucleation score was “inactive”.
With QSSLGNLTCANFWVTTTEVG the amyloid nucleation score was “inactive”.
For QTSLMMWLRR, the amyloid nucleation score was “inactive”.
With QVRLKEFLYSLKCDVRYGST the amyloid nucleation score was “inactive”.
For QYEALLPLTKKNRTNTWQRQ, the amyloid nucleation score was “inactive”.
With RFRSCSYLVNRSSMLAATDG the amyloid nucleation score was “inactive”.
